# Source: doi:10.1101/2025.09.08.674988
# Read-outs that look alike come from different tables or passages of the source.
# Tests used:
# [1] = target: T1, NS5B(Δ21)-FlAsH-His (RNA-dependent RNA polymerase) (Hepatitis C virus genotype 2a, UniProt Q99IB8 2443-3012); assay: EMSA
# [2] = target: T1, NS5B(Δ21)-FlAsH-His (RNA-dependent RNA …); assay: EMSA; remark: listed apart in the source
Binder,binding result [1],binding result [2]
5'UTR RNA (ssRNA) RNA: AUACUAACGCCAUGGCUAGGCGCUUUCUGCGUGAAGACAGUAGUUCCUCACAGGGGAGUGAUUCAUGGCGGAGUGUCGCCCCU,binds,
Synthetic RNA (structured_RNA) RNA: AGGGUUUUUUUUUUUAUUAUUUAUUCUUUAUUUUUCUUGCGUAGUUUUCUACG,,binds
